For orientation: IC50 means the concentration that gives 50% inhibition.

The target in one assay is HLA-A*02:01. The assay is described as follows: IEDB peptide-MHC binding, purified MHC/competitive/radioactivity; ≥ and ≤ were set here for values at or beyond the usual limits of such assays. The following applies: source organism: Influenza A virus.
On to FVEALARSI, for which the IC50 amounted to 1.02 µM.

The same assay, now with this note: source organism: Mammarenavirus brazilense.
Turning to FTTTLFLHLV, the IC50 came out at 0.473 µM.
The same measure, in the same setting: to GLFQLIFFL belongs 0.00044 µM.
On to GLFQLIFFLT, for which the IC50 stood at 1.23 µM.
Same read-out and setting: to GLLEWIFRAL belongs 0.439 µM; to GQLFSFFEEV, 0.033 µM.

The assay is the same for the next values; noted with them: source organism: Mammarenavirus juninense.
For the sequence GLFQFFVFL, the IC50 stood at 0.495 µM.
On the same count and under the same terms, to GLFQFFVFLA belongs 0.026 µM.
The same measure, in the same setting: the value for GLHTEFQTV was 0.129 µM.

The assay is the same for the next values; noted with them: source organism: Mammarenavirus lassaense.
Consider FVFSTSFYL, for which the IC50 was determined as 0.0025 µM.
Same read-out and setting: to FVFSTSFYLI belongs 0.329 µM.
On the same count and under the same terms, the value for GTMPSLTLA was 1.67 µM.

The assay is the same for the next values; noted with them: source organism: Mammarenavirus machupoense.
GLYMGNLSQL: the IC50 was found to be 0.072 µM.

Still in this assay, the particulars now being: source organism: Mammarenavirus whitewaterense.
FTMEWFLSGL: the IC50 came to 0.07 µM.
As to FTPQIICGNV, the IC50 came to 0.972 µM.
Same read-out and setting: to GLLQFIVFLL belongs 0.242 µM.
Same read-out and setting: the value for GLTDLGLLYT was 0.102 µM.
For the sequence GLVDVCFWST, the IC50 amounted to 0.071 µM.

Staying with this assay, now noted: source organism: Vaccinia virus WR.
Consider FTLTGSPSST, for which the IC50 amounted to 4.46 µM.
With FTPRDNETV, the concentration for half-maximal inhibition (IC50) is 0.877 µM.
With FTSSFYNYV, the IC50 was found to be 0.00046 µM.
Same read-out and setting: the value for FTTTSEVVDM was 1.89 µM; that for FTYYPTNKL was 1.73 µM; that for FVADRLISEL was 1.88 µM.
The same measure, in the same setting: to FVARVFLGL belongs 0.019 µM; to FVCISYYFT, 0.994 µM.
Same read-out and setting: to FVFAWFNGV belongs 0.00038 µM.
Consider FVFILTAIL, for which the IC50 came to 0.0041 µM.
Still for that read-out and setting: the value for FVFRSPFIV was 0.0046 µM.
Still for that read-out and setting: to FVFRSPFIVI belongs 0.17 µM; to FVILYLLAV, 0.0078 µM.
Same read-out and setting: to FVIVIYIFT belongs 3.47 µM.
For FVIVIYIFTV, the IC50 came to 0.122 µM.
Still for that read-out and setting: the value for FVLVDNVDFA was 0.075 µM; that for FVNDLMTMNI was 0.178 µM.
Same read-out and setting: the value for FVNKHLPTM was 1.59 µM.
Take GAENIVFNL: the IC50 turned out to be 4.72 µM.
Consider GIAHLLEHL, for which the IC50 stood at 3.56 µM.
Same read-out and setting: the value for GIFCFRILL was 0.0078 µM.
Still for that read-out and setting: to GIKSVVVPI belongs 0.869 µM; to GILSNYVKTL, 0.312 µM.
Same read-out and setting: to GIYHDDLVV belongs 2.83 µM; to GLADAFILL, 0.013 µM.
For the sequence GLCIRISMV, the IC50 was 0.216 µM.
Same read-out and setting: to GLCIRISMVI belongs 2.04 µM; to GLDLENLYA, 0.117 µM.
Still for that read-out and setting: to GLDLENLYAV belongs 0.0035 µM.
For GLDVKNVQL, the IC50 was 0.278 µM.
Turning to GLDVKNVQLV, the IC50 is 0.313 µM.
On the same count and under the same terms, the value for GLFIYIPGT was 0.019 µM; that for GLHCDFACLM was 2.8 µM.
The same measure, in the same setting: the value for GLIACLIFV was 0.0077 µM.
Same read-out and setting: to GLIIISIFL belongs 0.072 µM.
Take GLIKKPYRSI: the IC50 amounted to 0.848 µM.
Regarding GLISGSTFSI, the IC50 was 0.022 µM.
Still for that read-out and setting: to GLIYSMEFT belongs 1.22 µM.
Same read-out and setting: the value for GLKKIIQRV was 1.71 µM; that for GLLDRLYDL was 0.00013 µM.
On the same count and under the same terms, to GLNDYLHSV belongs 0.0013 µM; to GLSGDSERV, 0.626 µM.
Take GLVRLNAFL: the IC50 turned out to be 0.0017 µM.
As for GLYCYFTHL, the IC50 stood at 0.0054 µM.
Take GLYYQGSCYI: the concentration for half-maximal inhibition (IC50) was determined as 0.0051 µM.
Regarding GMANTTFHV, the IC50 was 0.00041 µM.
Consider GMLFVNDLM, for which the IC50 was determined as 0.467 µM.
Still for that read-out and setting: the value for GMLFVNDLMT was 0.838 µM; that for GTGYYKYFI was 1.65 µM.
Still for that read-out and setting: to GTINRILVIT belongs 1.23 µM; to GTYAVNIHV, 0.033 µM; to GVIEYAKSI, 4.18 µM.
For the sequence GVLTIKAPNV, the IC50 came out at 3.88 µM.
Still for that read-out and setting: to GVSKKNIWL belongs 3.16 µM; to HIFMASPENV, 0.097 µM.
Still for that read-out and setting: the value for HIFYQLANV was 0.0058 µM; that for HIIIVALTIM was 1.67 µM; that for HISIKVKNHI was 0.28 µM.
On the same count and under the same terms, to HLEWLLGFI belongs 0.173 µM; to HLGYIIRYPV, 0.012 µM.
Consider HLIFSYAFL, for which the IC50 is 0.105 µM.
For the sequence HLIKIPLLI, the IC50 came to 0.0019 µM.
HLMFYTLPI: the IC50 came out at 0.00067 µM.
Consider HLNPSRIRI, for which the IC50 was 0.956 µM.
The same measure, in the same setting: the value for HLPTMYDGL was 1.09 µM.
On the same count and under the same terms, to HMNEIRINI belongs 0.67 µM.
Still for that read-out and setting: to HMYFTFFDV belongs 0.0091 µM; to HQWDIDSAI, 1.01 µM; to IAISSLNKL, 1.5 µM.
Take IAMENLKAML: the IC50 was 0.674 µM.
For the sequence IIAIVFVFI, the IC50 amounted to 0.241 µM.
Same read-out and setting: to IIDFLEGAL belongs 0.919 µM; to IIDKDTNSV, 0.062 µM; to IIDKDTNSVT, 2.8 µM.
With IIDREVVANV, the IC50 worked out at 0.063 µM.
IIFFIVLILL: the IC50 was determined as 0.201 µM.
Regarding IIFGESSIFV, the IC50 was found to be 0.0013 µM.
Still for that read-out and setting: to IIILAVLFI belongs 1.66 µM; to IIIPFIAYFV, 0.0012 µM.
Still for that read-out and setting: to IIITCCLLSV belongs 0.0063 µM; to IILAISALL, 0.012 µM; to IILLFDFSI, 0.162 µM.
On the same count and under the same terms, to IILVIIVVI belongs 0.418 µM; to IITNAGTCTV, 0.454 µM; to IIVALTIMGV, 0.216 µM.
Turning to ILAIIFLVL, the IC50 is 0.131 µM.
On to ILASIIDYV, for which the IC50 was 0.00061 µM.
For the sequence ILDDNLYKV, the IC50 turned out to be 0.0013 µM.
On the same count and under the same terms, to ILFNLSKFLL belongs 0.004 µM; to ILGILYLYET, 0.073 µM; to ILGMLFSDRV, 0.017 µM.
On the same count and under the same terms, to ILLFVIVIYI belongs 0.0078 µM; to ILLLIGICVA, 0.683 µM.
ILLTLRMTQL: the IC50 was 0.366 µM.
The same measure, in the same setting: to ILMDNKGLGV belongs 0.0013 µM; to ILMDSIFVST, 0.045 µM.
The same measure, in the same setting: the value for ILMIFISSFL was 0.022 µM.
As to ILMYPTTLL, the IC50 is 0.007 µM.
For ILPCPQINTL, the IC50 was 1.38 µM.
For ILPVIFLSI, the IC50 turned out to be 0.00066 µM.
On the same count and under the same terms, to ILQISQCQRI belongs 2.6 µM; to ILQYDLWNV, 0.00017 µM; to ILRKIFYSV, 0.126 µM.
On the same count and under the same terms, the value for ILSAVAIFCI was 0.013 µM; that for ILSDDMLNI was 0.0076 µM; that for ILSLFLISLV was 0.0029 µM.
Still for that read-out and setting: the value for ILSNYVKTL was 0.313 µM; that for ILSNYVKTLL was 0.0075 µM.
Take ILSPPINAPI: the IC50 was found to be 0.038 µM.
On the same count and under the same terms, to ILTAILFFM belongs 0.035 µM; to ILTLDIFYL, 0.0013 µM.
Consider ILTREMGFL, for which the IC50 was 2.27 µM.
Still for that read-out and setting: to ILTREMGFLV belongs 0.007 µM; to ILVCYILYI, 0.019 µM; to ILWFFNAMVL, 0.011 µM.
Same read-out and setting: the value for ILYAAFLWL was 0.112 µM; that for ILYDNVVTL was 0.00051 µM.
On the same count and under the same terms, to ILYLYETYHL belongs 0.009 µM; to ILYMVVDGSV, 0.107 µM; to IMEYHLLFA, 0.013 µM.
On to IMFKDDNII, for which the IC50 is 0.235 µM.
Still for that read-out and setting: the value for IMFKDDNIIM was 0.141 µM; that for IMFTCMDPL was 0.0021 µM; that for IMLEGETKL was 0.0067 µM.
On the same count and under the same terms, to IMLNGIMYRL belongs 0.014 µM.
Take IMVTDTINT: the IC50 stood at 2.36 µM.
The same measure, in the same setting: to IMYTYFSNT belongs 0.057 µM; to IMYTYFSNTI, 0.099 µM.
Same read-out and setting: the value for IQAKTKNFTI was 4.23 µM.
Turning to IQESFIRFTV, the IC50 was found to be 0.017 µM.
Same read-out and setting: the value for ITLSLSKQDI was 0.211 µM.
On the same count and under the same terms, the value for ITLTNVVNI was 0.927 µM; that for ITLYDFDYYI was 0.029 µM; that for ITNGYLISI was 0.054 µM.
Same read-out and setting: to IVALTIMGV belongs 0.027 µM; to IVEVPEDGI, 2.45 µM; to IVFNLPVSKV, 0.053 µM.
With IVFVFILTA, the IC50 was determined as 0.294 µM.
Still for that read-out and setting: the value for IVIEAIHTV was 1.41 µM; that for IVIGVIILA was 0.664 µM.
Same read-out and setting: the value for IVISPMGKL was 0.896 µM; that for IVLFILKIFV was 0.271 µM.
In the case of IVLSNTSTAV, the IC50 was 0.725 µM.
As to IVLYNGVNYL, the IC50 is 0.225 µM.
The same measure, in the same setting: to IVMDNDDNI belongs 0.445 µM.
As to IVMDNDDNIL, the IC50 came to 0.883 µM.
On the same count and under the same terms, to IVSKLTFLDV belongs 0.085 µM; to IVSVSESNI, 2.35 µM; to IVVELEPSL, 2.11 µM.
Same read-out and setting: the value for IVWEKKSLV was 0.0021 µM.
On the same count and under the same terms, the value for IVYCLNALV was 0.102 µM.
Regarding KANCTAESST, the IC50 worked out at 2.76 µM.
Turning to KIADDRIVV, the IC50 worked out at 0.0066 µM.
On the same count and under the same terms, to KIDKLRQIV belongs 1.56 µM.
The same measure, in the same setting: the value for KIFETIYYGA was 0.604 µM.
The same measure, in the same setting: the value for KIFIDNIYIV was 0.522 µM.
Take KIFYKHIHKI: the IC50 is 0.539 µM.
The same measure, in the same setting: to KIIETYLGRV belongs 0.03 µM; to KIIKKMEDMV, 2.67 µM.
On the same count and under the same terms, the value for KILAIIFLVL was 0.383 µM; that for KILSASNRL was 0.766 µM; that for KINPTLDNI was 0.244 µM.
On the same count and under the same terms, to KISLDISQL belongs 2.28 µM; to KLDYWSFQL, 0.0021 µM.
With KLFFAKCLV, the IC50 amounted to 0.023 µM.
On the same count and under the same terms, to KLFFAKCLVV belongs 0.0023 µM; to KLFLIKKMA, 1.07 µM; to KLFTDNNFL, 0.002 µM.
For KLFYVYYNL, the IC50 was determined as 0.00049 µM.
Still for that read-out and setting: the value for KLGNLLLLI was 0.00043 µM.
KLHLISLLSL: the IC50 came to 0.097 µM.
On the same count and under the same terms, the value for KLIGITAIM was 0.02 µM; that for KLITFLFVI was 0.015 µM.
The same measure, in the same setting: the value for KLITSAFDLL was 0.457 µM; that for KLLISKGIEI was 0.132 µM.
Same read-out and setting: the value for KLLKMVTSV was 0.0012 µM.

Values taken from the Immune Epitope Database (IEDB).
